This experiment deals with YFPN-hAQP4 (human aquaporin 4 fused N-terminally to the YFPN fragment) (human) (UniProt P55087). Briefly: split reporter (BiFC, NanoBiT); YFPN-hAQP and YFPC-CaM co-expressed in S. cerevisiae; living cells at OD600 0.5 read by flow cytometry (FACSMelody, excitation 488 nm, FITC channel 527/32 nm); fluorescence frequency and intensity of gated cells; three transformations, ten replicates each.
Sequence of UniProt P55087 (P55087 whole entry, the tested form may be a part): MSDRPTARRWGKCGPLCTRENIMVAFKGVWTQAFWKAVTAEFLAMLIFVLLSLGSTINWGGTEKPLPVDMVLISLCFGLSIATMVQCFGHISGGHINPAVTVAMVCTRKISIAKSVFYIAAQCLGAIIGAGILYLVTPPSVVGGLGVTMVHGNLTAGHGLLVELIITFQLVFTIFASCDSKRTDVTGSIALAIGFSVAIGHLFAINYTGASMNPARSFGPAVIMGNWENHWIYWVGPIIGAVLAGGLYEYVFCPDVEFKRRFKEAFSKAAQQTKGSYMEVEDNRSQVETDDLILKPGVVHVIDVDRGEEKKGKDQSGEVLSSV

Consider “YFPC-CaM (calmodulin fused N-terminally to the YFPC fragment) (from UniProt P0DP23 1-149) (natural protein)”, for which the average fluorescence intensity (BiFC) was 1700.

Source of the values: paper PMC12317118.
